The values below are quoted from earlier work in paper PMC7619008.

The target in this data set is substance P (Rattus norvegicus) (UniProt P06767).
Sequence of UniProt P06767 (P06767 whole entry, looked up): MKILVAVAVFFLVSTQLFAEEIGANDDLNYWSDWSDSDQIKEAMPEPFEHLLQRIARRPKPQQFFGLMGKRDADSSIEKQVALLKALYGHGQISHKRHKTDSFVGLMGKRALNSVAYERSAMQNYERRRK

For NK1 receptor (from UniProt P14600), the Kd (in general, the equilibrium constant for the complex coming apart) was 3 nM.
